Data set [1] can be described thus: Glucuronidation by pooled human liver microsomes (HLM), UDPGA-supplemented. Type of data set: in vitro ADME. The conditions noted are these: probe substrate glucuronidation. The procedure:
(§1) The reaction was terminated by adding ice-cold acetonitrile. […] All experiments were performed in triplicate.
(§2) The parameter were as follow. V is the formation rate of the product. Vmax is the maximal velocity. […] Ksi is the substrate inhibition constant. […] (1) V=Vmax ×[S]/Km+[S] (2) V=Vmax ×[S]/Km + [S](1+[S]/Ksi)
For orientation: Liver microsomes are a subcellular fraction often used to study metabolism.

Another data set addresses T1, UGT2B7 (Homo sapiens, UniProt P16662).
T1 sequence (P16662 24-529): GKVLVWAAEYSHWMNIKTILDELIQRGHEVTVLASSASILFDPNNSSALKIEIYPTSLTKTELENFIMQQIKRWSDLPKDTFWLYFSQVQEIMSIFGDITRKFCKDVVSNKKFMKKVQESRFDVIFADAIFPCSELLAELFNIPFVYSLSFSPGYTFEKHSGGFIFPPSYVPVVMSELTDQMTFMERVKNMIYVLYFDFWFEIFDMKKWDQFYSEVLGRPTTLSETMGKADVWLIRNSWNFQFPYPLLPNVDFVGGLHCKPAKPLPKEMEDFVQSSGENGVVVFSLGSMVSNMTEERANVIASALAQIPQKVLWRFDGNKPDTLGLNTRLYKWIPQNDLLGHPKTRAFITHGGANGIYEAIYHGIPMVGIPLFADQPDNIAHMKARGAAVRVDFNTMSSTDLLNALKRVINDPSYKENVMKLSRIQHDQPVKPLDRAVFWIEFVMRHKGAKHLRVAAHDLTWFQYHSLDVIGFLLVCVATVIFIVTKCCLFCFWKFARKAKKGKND
Briefly: Glucuronidation by expressed UGT2B7. The protocol:
as §1
The gradient elution program was the same as the UPLC condition of the structural identification of wushanicaritin glucuronides above. The detection wavelength was set at 270 nm, and the injection volume was 8 µL.
as §2
The contribution of individual expressed UGT enzymes to wushanicaritin glucuronidation in HLM was evaluated by the relative activity factor (RAF) approach as described in previous studies. The relative activity factor was defined as the activity ratio of HLM to an expressed UGT enzyme (Supersome) toward a probe substrate for this enzyme using Equation (3). The relative amount of wushanicaritin glucuronidation in HLM attributed to an expressed UGT enzyme was estimated by multiplying the glucuronidation activity (i.e., the intrinsic clearance) derived with this enzyme by the corresponding RAF. […] The contributions of individual UGT enzyme were calculated according to Equation (4). (3) RAF=CLint{probe,pHLM}/CLint{probe,Supersome} (4) Contribution of UGTs=CLint(wushanica ritin,UGTs)/CLint(wushanica ritin,pHLM)×RAF

Substrate in data set [2]: CC(C)c1cccc(C(C)C)c1O
Briefly: not read. The conditions noted are these: other: probe substrate glucuronidation; UGT1A9; pH 7.4.

Substrate in data set [3]: COc1ccc(-c2oc3c(CCC(C)(C)O)c(O)cc(O)c3c(=O)c2O)cc1
Experimental: Briefly, the incubation mixture mainly contained 50 mM Tris-hydrochloric acid buffer (pH 7.4), 0.88 mM MgCl2, 22 µg/mL alamethicin, 4.4 mM saccharolactone and 3.5 mM UDPGA [32]. The reaction was terminated by adding ice-cold acetonitrile. […] The supernatant was subjected to UPLC/Q-TOF-MS (Waters Corporation, Manchester, UK) analysis. […] All experiments were performed in triplicate. Preliminary experiments were performed to ensure that the rates of glucuronidation were determined under linear conditions with respect to the incubation time and protein concentration.
Appropriate models were selected by visual inspection of the Eadie–Hofstee plot [34]. Model fitting and parameter estimation were performed by GraphPad Prism V5 software (GraphPad Software, Inc., San Diego, CA, USA).
V is the formation rate of the product. Vmax is the maximal velocity. Km is the Michaelis constant, and [S] is the substrate. Ksi is the substrate inhibition constant. The intrinsic clearance (CLint) was derived by Vmax/Km for the Michaelis–Menten and substrate inhibition models [12]. (1) V=Vmax ×[S]/Km+[S] (2) V=Vmax ×[S]/Km + [S](1+[S]/Ksi)
The contribution of individual expressed UGT enzymes to wushanicaritin glucuronidation in HLM was evaluated by the relative activity factor (RAF) approach as described in previous studies [2, 12]. The relative activity factor was defined as the activity ratio of HLM to an expressed UGT enzyme (Supersome) toward a probe substrate for this enzyme using Equation (3). The relative amount of wushanicaritin glucuronidation in HLM attributed to an expressed UGT enzyme was estimated by multiplying the glucuronidation activity (i.e., the intrinsic clearance) derived with this enzyme by the corresponding RAF. […] The contributions of individual UGT enzyme were calculated according to Equation (4). (3) RAF=CLint{probe,pHLM}/CLint{probe,Supersome} (4) Contribution of UGTs=CLint(wushanica ritin,UGTs)/CLint(wushanica ritin,pHLM)×RAF
Briefly: not read. The conditions noted are these: UGT1A9, pH 7.4.

Setting [4] is: other: formation of G1 (3-O-glucuronide).
The mark [5] stands for this setting: other: formation of G2 (7-O-glucuronide).

Consider `Cc1cn([C@H]2C[C@H](N=[N+]=[N-])[C@@H](CO)O2)c(=O)[nH]c1=O` [AZT, zidovudine, reference compound], for which the microsomal CLint (usually the rate of metabolic loss divided by the concentration) in data set [1] (human, pooled liver microsomes) amounted to 0.27 ± 0.02 µL/min/mg; at UGT2B7 (expressed UGT2B7 (Supersome)), 0.26 ± 0.02 µL/min/mg. The Km (in general, the concentration of substrate that gives half-maximal velocity) stood at 4360 ± 341 µM in data set [1] (human, pooled liver microsomes, read-out: Km) and 1600 ± 121 µM at UGT2B7. Also, in data set [1], the Vmax – broadly, the top rate of the reaction or transport when substrate is in excess – turned out to be 1.18 ± 0.53 nmol/min/mg.

B1: expressed human UGT1A9 (Homo sapiens) (protein)
chain: GKLLVVPMDGSHWFTMRSVVEKLILRGHEVVVVMPEVSWQLGRSLNCTVKTYSTSYTLEDLDREFKAFAHAQWKAQVRSIYSLLMGSYNDIFDLFFSNCRSLFKDKKLVEYLKESSFDAVFLDPFDNCGLIVAKYFSLPSVVFARGILCHYLEEGAQCPAPLSYVPRILLGFSDAMTFKERVRNHIMHLEEHLLCHRFFKNALEIASEILQTPVTEYDLYSHTSIWLLRTDFVLDYPKPVMPNMIFIGGINCHQGKPLPMEFEAYINASGEHGIVVFSLGSMVSEIPEKKAMAIADALGKIPQTVLWRYTGTRPSNLANNTILVKWLPQNDLLGHPMTRAFITHAGSHGVYESICNGVPMVMMPLFGDQMDNAKRMETKGAGVTLNVLEMTSEDLENALKAVINDKSYKENIMRLSSLHKDRPVEPLDLAVFWVEFVMRHKGAPHLRPAAHDLTWYQYHSLDVIGFLLAVVLTVAFITFKCCAYGYRKCLGKKGRVKKAHKSKTH
In the case of B1, the Km in the data set “not read [2]” amounted to 45.91 ± 5.91 µM. For the same molecule, in the data set “not read [3]” (setting [4]), the K0.5 stood at 0.32 ± 0.03 µM, the Vmax came to 8e-05 µmol/min/mg and the Vmax/Km was 240 µL/min/mg. In the data set “not read [3]” (setting [5]), the K0.5 came out at 0.39 ± 0.06 µM, the Vmax is 0.00011 µmol/min/mg and the Vmax/Km is 270 µL/min/mg.

These data come from publication PMC5618632, “In Vitro Glucuronidation of Wushanicaritin by Liver Microsomes, Intestine Microsomes and Expressed Human UDP-Glucuronosyltransferase Enzymes” (International Journal of Molecular Sciences, 2017).
